{"source": "patent US20240026407A1", "about": "“MODIFICATION OF SAPONINS” (GLAXOSMITHKLINE BIOLOGICALS SA, priority 2020, published 2024)", "molecules": {"B1": {"name": "842 (protein, listed as Nonomuraea sp.)", "chain": "MNLQDKASLLSGRDFWSTKPVGDVPAAVLSDGPHGVRRQTGEADHVGIHESLPATCFPPAVAVGSSWDPAVAGRLAAAVAVEARALDVQINLGPGVNIKRSPLCGRNFEYYSEDPLLTGVLAAAHVEALQAGGVGASVKHFAANNQETGRMRVSAEIDERTLREIYLPAFERVVKHARPATVMAAYNKVNGVYASQHPWLLTRVLREEWGFDGVVVSDWGAVNDRVAALKAGLDLEMPGNPANDAMIVQAVRDGELDEAVVDRSVARVRAMVRAWRPEPAAFDADAHHALARELAAECAVLLKNDGDTLPIRADVQTIAVLGPFATEPRFQGGGSSHVTPTRVDSPLEEIRRLAGDRVVTADPDDADLAIVFAGPADLDESEGYDRAGLDLPAEQVELIRATAAAARRTVVVLSNGGVVSLEGWHDEVDAILEGWLLGQAGGGAIADLLFGVAAPSGRLAETIPMRLQDTASYLNFPGEQDVVRYGEGVMVGYRYHETAGRPVRYPFGHGLTYTTFAVSDLTVRVTGDDSARVSVTVANTGRRYGKHVVQLYVATQAGPVRRPARELRAFTKVGLEPGRSTTVTFDLDARAFAYWDVKEGRWLVAPGDYTVQIGENASAVVAEETIELAGEVIARELTLDSSVGEWFAHPQVGPVLMRHVAATMTEEQRAAAAEHQDLLRMIESLPMHQFLSPMGVRLPDQAVREMMELSRRPQ"}, "B2": {"name": "816 (protein)", "chain": "MTASTDHLRPLLEKLSLEQKAALVQGADFWTTVPLPEIGLRALTLSDGPAGVRGPRWDEREPSLNLPSGSALAASWDVDLAYRYGAAAASEARRKGVDVVLGPTINLHRSPLGGRHFECLSEDPELTAELGAAYVRGMQENGVAATPKHYVANDSETDRFTVDVEVDERTLREVYLAPFERAVEAGAWSVMSAYNSVDGVTMTENDLLENPLNSEWGFDGVVVSDWTAVRSLDAVAAAQDLAMPGPAPAWADLVDAVHDGRVDEADIDRKVLRILLLAERVGALEGADAVAPAPLDGPAFAKEAAVEGTVLLQNSGVLPLDLAGLTKVAIIGHNAKDARTQGGGSATVLPEKVVSPLDAIRAALPAAEVSYEIGAVVQEGVAEIPLASIENPVTGGPGVRVSFHGADGTELFAEDRRATALVWFGGDAPIGASRTIVLETRYTPAESGEIQLGFAGANPGRIFVDGELVLDDVPVIEGTDLGAAFLNPPSITSAVTVEAGRAVDLRAEFTRESRGALDGALSVTLGIAPERTDPDELIARAAAAASAAEVAVVVVGTNSKVESEGYDRVDLDLPGRQDDLVRAVAATGTPTVVVVNAGSPVVLPWAGEVAAIVQGYFGGQEFGHAIAEVLTGAAEPGGRLPTTWPAALADVPVADVTPVDGRLVYAEGLHIGYRAWLKDDVQPAFPFGHGLGYTTWSWGTAQRHDDTVEVTLANTGEREGKQVVQVYAERADSTVDRPARWLVGFAVVHAEPGRTVTAVVPVPARRLAHWAGEWVVEPGAYTLRVGSSVADLPLSVEWVQA", "modifications": "Microbacterium hydrocarbonoxydans"}, "B3": {"name": "891 (protein, listed as Pseudarthrobacter chlorophenolicus)", "chain": "MNPTLPAAATVPAVGSPDAEARIRDLAESLTLEQQVQLLTGADVWSTHALPAIGLSRVVMSDGPAGVRGEDFDERHDSVSLPSSSALSATWSVDLARRYGQVLGQEARRKGVHAVLGPTINLHRSPLGGRHFECMSEDPRLTATIAAGYVAGVQSMGVGATPKHYLANEAETDRFTSDSVVDERPLRELYLAAFEDAVTEARAWLVMSSYNSINGTTASENDLLETPLSTEWGFDGVVVSDWTGVRSVDAANAHQDLEMPGPVGHWGPKLLAAVGDGRVSRTAILDKVVRILRLAARVGSLDGVSPAVTELPAPLNAPAVAREVAVRGAVLVRNKDGLLPLDPAALGSVAVSGHNAEEARTQGGGSATVMPKQNISPLEGLREALPANVAISYHRGAKVAEGLQAFPRTSLHNPVSNVPGLRVTFLAADGTELSGEDRLASHLIWFGIGIPEGAAAIRMETDWTAPSAGTHHLGLGTVGRIRLSLRGQEVFNGDIEDETEVLGAALFDPPKTVHAIETEAGERVRIEALFELPADQAIPFTAILLGEETVVADPQAEIDAAVEAARTADVAVVVVGTSAAIESEGFDRKDLDLPGHQNRLVEAVAAANPRTVVVVNSGSPVLMPWLDKVGAVLLGWFGGQEFGRAIADILLGAEEPGGRLPTTWPAALEDVPVLDTTPMDGKVVYSEGIHVGYRAWLKQQAAGGAAPALPFGYGLGYTTFELCTPHASQAVPAGKDVVVHVPVRNTGTRAGREVVQVYLERPESAVERPVRWLAGYAGTHLAAGGTSSVEVRIPGRAFAHYDGGWQVEPGTFRILVGRHSADGFQALDIDVR"}, "B4": {"name": "857 (protein, listed as Streptomyces venezuelae)", "chain": "MTETGAHTAADAARESVVEAALAKLDLDSKTRLLAGQDMWSLPALPEIGLTSLVMSDGPIGVRGVRWTADDPSVALPSPTALAAAWDPALARRAGRLLAQEARRKGVHVLLAPTVNLHRTPLGGRHFEAYSEDPLLTGAIGTGYVQGVQDGGVGTTVKHFVANDAETDRFTVDNRIAPRPLRELYLAPFEAIVKNAHPWGIMTAYNQVNGVTMTEHRHLVNEVLRGEWGFDGFNVSDWMAARSTTGDIEGGLDVAMPGPQTVYGEALAAAVRAGEVEESTVDAAVRNVLRLAARVGALEGAPPVVTDPPAAIDGDALAREIAHRGFVLVRNENGALPLKNGTVALSGAAARDARVLGGGSAQVFPEHIVSPLDGLTAALPEGALTYTIGADPSDELTPADQGFTLRAVCRDASGTVLGEGTLPNGQVQWIGDDLPAGVTHEALASIEVVGRFTPRETGEHAFGTRGLGAFRLSVDGETLFDGVQALGPETDPFEAFFGSPVERAKVVLTAGETVDVSLLHTLDKEFAAPLPAVMFSFVHLGPRRDPDELIAEAVEAARAADTAVVVVATTERVESEGFDRKDLALPGRQDDLVRAVAAANPNTVVVVNAGSPVELPWREEVAAVLLSWFPGQEGGAALADVLTGAEEPGGRLPTTWPAALADAPVTEVTPTGGELDYAEGVFIGYRAWDKAGAVPAYAFGHGLGYTTWTYESLTARPGTATVRLTNTGDRPGREVVQVYLAPVDDGVERPARWLAGFGCVEAGPGETVETEIALPRRAFEIWDEEKNDWSFVGGAYEVLAARSLTDARLSATLEV"}, "B5": {"name": "827 (protein, listed as Bionectria ochroleuca)", "chain": "MAPTDVNAVLSKLTLEEKISILAGADFWQTVPIPEKGVPALKTSDGPNGARGETFSGGVTAACFPAACSVASTFDVDIARRIGVALGEETLTKGARCLLGPTICGHRHPLGGRNFESFSEDPFLAGTLASQSVQGIQSTGVAATMKHYAVNEQETERLSVDEIVDERTMREIYLRPFERVVKEAKPAAVMTGYNQVNGSHCDSHEFLLKQVLRGEWGWDGLVMSDWGGVNSVAESLNAGLDLEMPGPTRWRKVDEVVAAVKAGKVSEETINDRAIHVLRFLERQNCFKDPTIPPEQAVNKPEHQALIREAGSKGIVLLKNNDNVLPLTKEKARGKKIALLGLAKESLAHGGGSASLNAHYKITPWDALQEAYKGENVEFTYAKGAHTLRQLPVITKNVVDVDGKPGFTWRSYHVGESQPYNTVGGHAKSEISLLDGLNMVNTSIELEGTFTASESATYYFTLSGLGPSSVAINGTVVFEQEDNCSDPMGFLLGGVASPLVKYEFESGKQYKILLKSTPPAPVEGVDLGILEGKVGVRLGNMSASEHDKDILTEAIDLAKAADYAIVFTGHDPSWETEGQDQHSFNLPKDGSQDRLVSGVAAVNQNTIVVNSTGVAVAMPWLDEIKSLVHTWFPGQEAGNSIADVLTGERNPEGHLTCTFPKRLEDCPAYGNFPGEYNGRQLTVKYAEGVFVGYRHFDRLPAEKVNFPFGFGLSYTTFGFSDFDVKPTAAGDEWTASVKVTNTGSVKGAIAVQLYVGNSKTSPENPVKSLVSFKKVTLAAGGSAVVELPAQGRDIAFWSQQEHKWVLEAGEYNFSVGKSAGDLVATATVQVGGKTYAP"}, "B6": {"name": "853 (protein, listed as Clostridium oryzae)", "chain": "MKRDIKEIVSKMTLEEKAGLCSGLDFWHTKGVERLGVPSIMVTDGPHGLRKQDTSADHLGINDSVPATCFPSGATLACSWDRSLLQKVGTALGEECQAEGVSVILGPAANIKRSPLCGRNFEYFSEDPYLSTEMAANHIKGVQSQGVGTSLKHFAVNNQEHRRLSVDAEVDERTLREIYLASFEGAVKQSQPWTVMCSYNKVNGTYASENEYLLTSILKEEWGHEGFVMSDWGAVDRRENALKAGLELEMPSSNGIGDNRIVQAVKNGELKEEVLDKAVERLLNIIFKAVDNKKEGAVYDREQHHSLARKIAGECMVLLKNEDNILPLKKEGKIAVIGGFVDKYRYQGGGSSHIKPNKLDNAAEELKKAAKGENIVFAKGFSLDNDEVDSKLMEEAKNAAASAETAVIFAGLPDRYESEGYDRSHMRIPDNQIALINAIAEVQKNIVVVLSNGSPIEMPWIGNVKGILEAYLGGEAGAGAIADILFGEVNPSGKLAESFPKKLSDNPSYLNFPGEGDTVEYKEGLFVGYRYYDKKEVETLFPFGYGLSYTTFEYKNITVDKKNITDEEKLVVKVTVKNTGKLTGKEIVQLYVRDVESSVIRPVKELKGFEKVELAAGEEKTVEFVLDKRTFAYYNVDIKDWYVESGDFEILIGSSSKDIYLKDVVNVEGTTAVKKIYTRNSTVGDVMANPQARKLTEELLSSTFGQGTDDSENLGTDMTAMMKDMTLRSILHFGGDKSKEKELDKILEMLNK"}}, "data": [{"experiment": "Experiment 5-1: screening of additional glucosidases for deglycosylation with purified QS-18 (0.04 mg/ml) at pH 7.5 and 30 deg C", "format": "biochemical, Quillaja saponaria", "conditions": "pH 7.5, 30 degrees C, 18 hours, LCMS/MS", "protocol": "The 94 additional genes, together with positive control (DNA encoding SEQ ID No. 262) and negative control, were transformed, expressed, lysed and reacted in the same manner as described above for Experiment 4-1, except the reaction was incubated at 30 degrees C. for 18 hours.\nSamples were analysed by LCMS/MS according to the procedure in Experiment 4-1.", "units": {"Experiment 5-1 % conv": "%"}, "values": [{"molecule": "B1", "Experiment 5-1 % conv": 64.0}, {"molecule": "B2", "Experiment 5-1 % conv": 73.5}, {"molecule": "B3", "Experiment 5-1 % conv": 74.7}, {"molecule": "B4", "Experiment 5-1 % conv": 69.0}, {"molecule": "B5", "Experiment 5-1 % conv": 69.2}, {"molecule": "B6", "Experiment 5-1 % conv": 67.7}]}, {"experiment": "Experiment 5-3: screening of additional glucosidases for deglycosylation with QS-18 in treated bark extract (80%) at pH 6 and 35 deg C", "format": "biochemical, Quillaja saponaria", "conditions": "TBE 80% (QS-21 approx. 4 g/L), pH 6, 35 deg C; UV HPLC", "protocol": "Experiment 5-1 was repeated, replacing CBE with Treated Bark Extract (TBE) at pH 6. TBE was prepared from CBE by PVPP treatment and concentration, to provide TBE with a QS-21 concentration of approximately 4 g/L. TBE was adjusted to pH 6 by dropwise addition of 2M NaOH with stirring.", "units": {"Experiment 5-3 % conv": "%"}, "values": [{"molecule": "B1", "Experiment 5-3 % conv": "<0.5"}, {"molecule": "B2", "Experiment 5-3 % conv": "<0.5"}, {"molecule": "B3", "Experiment 5-3 % conv": "<0.5"}, {"molecule": "B4", "Experiment 5-3 % conv": "<0.5"}, {"molecule": "B5", "Experiment 5-3 % conv": "<0.5"}, {"molecule": "B6", "Experiment 5-3 % conv": 2.5}]}, {"experiment": "Experiment 5-2: screening of additional glucosidases for deglycosylation with QS-18 in crude bark extract (80%) at pH 6 and 35 deg C", "format": "biochemical, Quillaja saponaria", "conditions": "CBE 80%, pH 6, 35 deg C, 18 hours; UV HPLC", "protocol": "A plate was lysed at pH 6 as described in Experiment 4-2. 40 uL of clarified lysate was transferred to a reaction plate\nThe pH of CBE was adjusted to pH 6 by dropwise addition of 2M NaOH with stirring. 160 uL of pH 6 CBE was added to each well of the reaction plate. The reaction plate was sealed and incubated at 35 deg C. with shaking for 18 hours.\nThe reaction plate was quenched by adding 200 uL of MeCN (2% acetic acid (AcOH), 1 mg/mL hexanophenone) to each well of the plates. The quenched reaction plate was re-sealed and incubated at 20 deg C. with shaking for 10 min. The reaction plate was then centrifuged (10 min, 4 degC).\n200 uL was transferred from each well of the quenched plate to the corresponding wells of a fresh 96 well plate and sealed. The plate was analysed by UV HPLC with the method of Experiment 4-4.", "units": {"Experiment 5-2 % conv": "%"}, "values": [{"molecule": "B1", "Experiment 5-2 % conv": "<0.5"}, {"molecule": "B2", "Experiment 5-2 % conv": "<0.5"}, {"molecule": "B3", "Experiment 5-2 % conv": "<0.5"}, {"molecule": "B4", "Experiment 5-2 % conv": "<0.5"}, {"molecule": "B5", "Experiment 5-2 % conv": "<0.5"}, {"molecule": "B6", "Experiment 5-2 % conv": "<0.5"}]}]}
